These results are taken from a protein production outcome set (Wang et al. 2014).

The series is described as follows: label from the status in PepcDB records.
For “MRHRGGRGFRGWWLASTILLLVAEKPSHGYELAERLAEFGIEIPGIGHMGNIYRVLADLEESGFLSTEWDTTVSPPRKIYRITPQGKLYLREILRSLEDMKRRIETLEERIKRVLQEE”, the protein production result was “not failed”.
With “MEAVLNELVSVEDLKNFERKFQSEQAAGSVSKSTQFEYAWCLVRSKYNEDIRRGIVLLEELLPKGSKEEQRDYVFYLAVGNYRLKEYEKALKYVRGLLQTEPQNNQAKELERLIDKAMKK”, the protein production result was “not failed”.
In the case of “MIIESRIEKGKPVVGMETTVFVHGLPRKEAIELFRRAKEISREKGFQLAVIGILKGKIVAGMSEEELEAMMREGADKVGTREIPIVVAEGKNAATTVSATIFLSRRIGIEVVVTGGTGGVHPGRVDVSQDLTEMSSSRAVLVSSGIKSILDVEATFEMLETLEIPLVGFRTNEFPLFFSRKSGRRVPRIENVEEVLKIYESMKEMELEKTLMVLNPVPEEYEIPHDEIERLLEKIELEVEGKEVTPFLLKKLVEMTNGRTLKANLALLEENVKLAGEIAVKLKRS” it was “not failed”; in that of “MQYIKIHALDNVAVALADLAEGTEVSVDNQTVTLRQDVARGHKFALTDIAKGANVIKYGLPIGYALADIAAGEHVHAHNTRTNL”, “not failed”; in that of “MMPYITDIAALEHVGVAAAWTEKVPAFRVLREKRMLDFRAPITVITGENGVGKSTLLEAIAINAGFDTAGGEHTGKFKPSDNPLQTVAKAHKGKEPMRGYFLRAETHFNVASGYRDEAPGWVNLHHMSHGESVMHIVQNAFVGKGLYLMDEPEAGLSFIRQMAILAELNFLAESGAQIIIVTHSPVLMAIPGAEIWEFSASGELHRGFDFEVTTAFRALRDFFEDPEEIAEYMMDVMMDNKGESLEHHHHHH”, “failed”.
In the case of “MKTSRECFSSAGGSPMIRATSARSPPVPQSALPIGSLLSAPRPAFTETEAQGLARTHFGLDGTALPLTSERDQNFRLATPRGAFVLKIANAAEPRGVTECQTLALLHLEAVAPGLPVPRVIRTREGAPWTELAGGNLLRLLTWVEGEPLWRARRGAAQRRAVGLCLGGIAAALADFSHPSADHELLWDIRHAARLRALLPAIPDARTAVLAERVLDRFETAVAPRLADLPWQVVHNDMNPHNIMVDPANADRVAGVIDFGDLVRTARVCDLAVAGSYQVDPGDPAGTLADLVAGYHAANPLRPEEVELLPDLVAARMVTTIAIASARAAQQPDNAPYILRNLPASAAGLEALTALAPGAAAAALLRATEAA”, the protein production entry is recorded as “failed”.
For “MINEQRLLNTFLELVQIDSETGNESTIQPILKEKFIALGLDVKEDEAAKHPKLGANNLVCTMNSTIEEGEVPKLYLTSHMDTVVPAINVKPIVKDDGYIYSDGTTILGADDKAGLAAMLEVLQVIKEQQIPHGQIQFVITVGEESGLIGAKELNSELLDADFGYAIDASADVGTTVVGAPTQMLISAKIIGKTAHASTPKEGVSAINIAAKAISRMKLGQVDEITTANIGKFHGGSATNIVADEVILEAEARSHDPERIKTQVKHMTDVFETTASELGGKAEVTVEQSYPGFKINDNEAVVKIAQESARNLGLSANTIISGGGSDGSIINTFGIPSVILGVGYEKIHTTNERMPIKSLNLLASQVLEIIKIVARQSK”, the protein production result is “not failed”.
Regarding “MLCRKNSSLVDRGNVPVYLNVYDLTPINGYAYWLGLGVYHSGVEVHGIEYAYGAHEYPSTGIFEGEPKQCEGFTFRKSILIGKTDLGPLEVRATMEQLADNYKGSSYNLITKNCNHFCDETCIKLTGNPIPSWVNRLARIGKFSGFMCNCVLPATINATRFGNNRVNQDKSCEAENEKKKLTSVSSRERSTIATPSSSSSSPSVQVRGRSRKRRPRALQPSSPLTLGSSSV”, the protein production result is “failed”.
“MREGSCPRLARCPGANWGHGRILHTRLHLASLPRPCYFFVTAYINGRETITASCKRSGVSPIPFRPMSPDFPLAPLDLAIIVGYFAVVGIIGYVVAQRIESGEDLFLAGRTLTWGTIGFSLFASNISSTTLIGLAGDAYRTGIAVSNYEWMAGIVLVFIAVFFVPFFIRSGLTTIPEYLEKRFDVRSRKYFSGLTIFTSVIIDTAGGIYAGTLVIKTFFPDLIPGMGPEMDFYVTCFILALIAGVYTAAGGLAAVVYTDILQAVILLVGSVFIAGITFAEFDFSWAQATAQLPEGHLSLMRPMGAEGLPWLGTLVGVPILGFYYWGLNQYIVQRILGARDLDNARWGAMLGGLLKLLPLFIMVLPGAFALQLYPDLGNPDQVFPTLVTDLLPVGIVGLVMAGLIAAIMSTIDSTLNSASTLITIDFVKPRWPDLTPQQVGTVGRVTTIILMLFAAVWAPQIREFPGLWSYIQSVLSYLVPPVVAVFLLGIFWPRTNGSGAFATLLGGHALSIAVFLCAQDGLLFADAPIDLHFTIIAGILTALCLGMLVAFSLTLGPPPAEEEIDDLTWANRVLETGPAMAWYKNYRVHAATVLALTAVMLVVFW”: the protein production result is on record as “failed”.
